Results as given in IntAct's records for PubMed 19298369.

B1: Sigma factor AlgU negative regulatory protein (Pseudomonas aeruginosa (strain ATCC 15692 / PAO1 / 1C / PRS 101 / LMG 12228)), P38107 (parent)
chain: MSREALQETLSAVMDNEADELELRRVLAACGEDAELRSTWSRYQLARSVMHREPTLPKLDIAAAVSAALADEAAPPKAEKGPWRMVGRLAVAASVTLAVLAGVRLYNQNDALPQMAQQGTTPQIALPQVKGPAVLAGYSEEQGAPQVITNSSSSDTRWHEQRLPIYLRQHVQQSAVSGTESALPYARAASLENR
partner: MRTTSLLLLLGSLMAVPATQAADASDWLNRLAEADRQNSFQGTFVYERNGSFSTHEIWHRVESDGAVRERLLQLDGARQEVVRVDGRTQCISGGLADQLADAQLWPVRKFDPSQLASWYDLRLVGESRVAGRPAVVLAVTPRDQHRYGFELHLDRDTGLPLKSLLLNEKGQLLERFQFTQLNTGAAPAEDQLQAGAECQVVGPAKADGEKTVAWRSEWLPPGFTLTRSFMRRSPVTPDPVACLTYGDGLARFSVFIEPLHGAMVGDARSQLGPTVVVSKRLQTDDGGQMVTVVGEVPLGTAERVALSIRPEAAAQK

Variants of: B1
Settings: with mucb_pseae mucB

Variant | effect of a mutation on the interaction
S154C | decreasing interaction strength
